Patent US9696303

Key:
[1] = molecular target: HRP-labelled Concavalin A (UniProt P02866); test: capillary displacement of HRP-labelled Concavalin A from immobilised yeast mannoprotein; platform of Example 3; HRP substrate, spectrophotometer
[2] = molecular target: HRP-labelled Concavalin A (UniProt P02866); test: capillary displacement of HRP-labelled Concavalin A from immobilised yeast mannoprotein; platform of Example 4; HRP substrate, spectrophotometer
[3] = molecular target: HRP-labelled Concavalin A (UniProt P02866); test: capillary displacement of HRP-labelled Concavalin A from immobilised yeast mannoprotein; platform of Example 2; HRP substrate, spectrophotometer

Sequence of UniProt P02866 (P02866 30-281 limits assumed): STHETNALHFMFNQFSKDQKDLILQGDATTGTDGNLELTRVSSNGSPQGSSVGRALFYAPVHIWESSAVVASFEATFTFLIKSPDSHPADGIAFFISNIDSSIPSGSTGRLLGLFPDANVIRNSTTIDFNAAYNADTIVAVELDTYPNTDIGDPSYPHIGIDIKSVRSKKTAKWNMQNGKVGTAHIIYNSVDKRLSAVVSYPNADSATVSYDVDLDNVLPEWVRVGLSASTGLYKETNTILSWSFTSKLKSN

absorbance at 446-456 nm (absorbance (448.5 nm)) [1] | absorbance at 446-456 nm (absorbance (446 nm)) [2] | absorbance at 446-456 nm (absorbance (446 nm)) [1] | absorbance at 446-456 nm (absorbance (456 nm)) [3] | Substance
2.7 | 2.5 | – | – | yeast mannoprotein
– | > 4 | 2.22 | 3 | polystyrene beads with immobilised yeast mannoprotein
